Target: the molecule itself
Assay: SEC; analytical gel filtration on Progel-TSK W-3047 (HPLC), 0.1 M sodium phosphate buffer pH 7.0, 1 mL/min; calibrated with standards of 6.5-160 kDa; apparent mass 135.33 ± 3.5 kDa against 48.5 kDa from the sequence

B1: Cupincin (hypothetical protein OsI_13867) (enzyme, UniProt B8AL97 35-470, looked up)
chain: SRRGEREEEDERRRHGGEGGRPYHFGEESFRHWTRTRHGRFSVLERFPDEQVVGAAVGGYRVAVLEAAPRAFLQPSHYDADEVFYVKEGEGVIVLLREGRKESFCVREGDAMVIPAGAIVYSANTHSSKWFRVVMLLNPVSTPGHFEEYFPVGGDRPESFFSAFSDDVLQAAFNTRREELEKVFERQREGGEITTAPEEQIRELSKSCSRGGGGGSGSEWEIKPSSLTGKSPYFSNNHGKLFELTGDECRHLKKLDLQIGLANITRGSMIAPNYNTRATKLAVVLQGSGYFEMACPHVSGGGSSERREREREHGRRREEEQGEEEHGERGEKARRYHKVRAQVREGSVIVIPASHPATIVASEGESLAVVCFFVGANHDEKVFLAGRNSPLRQLDDPAKKLVFGGSAAREADRVLAAQPEQILLRGPHGRGSVSDM
notes: Cupincin, hypothetical protein OsI_13867 of Oryza sativa L., 436 residues and 48492.94 Da in the database entry; The native protein runs in SDS-PAGE as three polypeptides (about 34.5, 26.9 and 15.9 kDa) that all match OsI_13867; also called purified protease from rice bran; source: purified from rice bran (variety IR-64): ammonium sulphate fractionation (40-80%), Sephadex G-150
For B1, the “stoichiometry N” value was 3.

Source: article PMC4827828, “Cupincin: A Unique Protease Purified from Rice (Oryza sativa L.) Bran Is a New Member of the Cupin Superfamily” (PLoS ONE, 2016)
